Assay results: patent US20250145711A1 (Janssen / Centocor, published 2025)

Columns and labels:
[1] = target: T1, human PSMA on prostate cancer cell lines (22RV1, C4-2B) (human, UniProt Q04609 1-750); test: flow cytometry on C4-2B cells
T1 construct: also called PSMA-expressing cell lines
Procedure, shortened: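 22RV1 and C4-2B prostate cancer cells (50,000/well, RPMI/10% HI FBS) incubated 60 min at 37 °C with serially diluted antibodies. After washes, bound antibody detected with 2 μg/ml AlexaFluor647 goat anti-human Fc, 30 min at 4 °C, by flow cytometry.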

[2] = target: T1, human PSMA on prostate cancer cell …; test: flow cytometry on 22RV1 cells; 22RV1 cells
Method: 22RV1 and C4-2B cells were plated at 50,000 cells per well in 50 μl of assay medium (RPMI, 10% HI FBS) in V bottom plates. Serial dilutions of antibodies were prepared in assay medium with 50 μl of antibody dilutions added to the plates containing cells. The plates were incubated for 60 min at 37° C. at which time 100 μl of staining buffer (Becton Dickinson Cat #554657) was added to all wells of each plate. The plates were centrifuged at 300×G for 5 minutes and the medium was removed from the wells. 200 μl of staining buffer was added to all wells of each plate. The plates were centrifuged at 300× G for 5 minutes and the medium was removed from the wells. 50 μl of 2 μg/ml AlexaFluor647-labeled goat anti-human Fc was added to all wells of the plates and the plates were incubated for 30 minutes at 4° C. 150 μl of staining buffer was added to all wells of each plate. The plates were centrifuged at 300× G for 5 minutes and the medium was removed from the wells.

T1 sequence (Q04609 whole entry): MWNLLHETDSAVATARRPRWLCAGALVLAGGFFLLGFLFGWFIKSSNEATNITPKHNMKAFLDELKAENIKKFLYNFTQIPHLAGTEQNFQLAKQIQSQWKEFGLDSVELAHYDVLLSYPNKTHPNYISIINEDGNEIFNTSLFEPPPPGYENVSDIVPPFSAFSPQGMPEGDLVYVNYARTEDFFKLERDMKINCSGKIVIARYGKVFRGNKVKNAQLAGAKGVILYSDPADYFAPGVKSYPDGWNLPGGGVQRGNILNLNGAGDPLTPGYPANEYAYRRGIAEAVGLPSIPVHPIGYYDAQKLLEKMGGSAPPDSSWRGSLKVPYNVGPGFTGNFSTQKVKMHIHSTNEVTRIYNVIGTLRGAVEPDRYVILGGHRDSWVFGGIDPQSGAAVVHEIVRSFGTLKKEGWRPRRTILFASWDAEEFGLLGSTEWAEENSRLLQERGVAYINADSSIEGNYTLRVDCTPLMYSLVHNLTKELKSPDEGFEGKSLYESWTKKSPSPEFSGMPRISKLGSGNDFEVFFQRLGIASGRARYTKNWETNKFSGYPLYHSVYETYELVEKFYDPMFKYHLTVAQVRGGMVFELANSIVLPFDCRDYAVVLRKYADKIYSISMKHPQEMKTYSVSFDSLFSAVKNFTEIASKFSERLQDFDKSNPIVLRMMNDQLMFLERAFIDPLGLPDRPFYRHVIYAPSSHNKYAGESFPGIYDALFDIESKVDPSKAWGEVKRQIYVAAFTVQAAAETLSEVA

EC50 [1]: 60 nM | EC50 [2]: ≥ 60 nM
B1: PS3B918 (bispecific antibody, human IgG1, lambda, L234A L235A)
heavy 1: QVQLQQSGPRLVRPSQTLSLTCAISGDSVFNNNAAWSWIRQSPSRGLEWLGRTYYRSKWLYDYAVSVKSRITVNPDTSRNQFTLQLNSVTPEDTALYYCARGYSSSFDYWGQGTLVTVSSASTKGPSVFPLAPSSKSTSGGTAALGCLVKDYFPEPVTVSWNSGALTSGVHTFPAVLQSSGLYSLSSVVTVPSSSLGTQTYICNVNHKPSNTKVDKKVEPKSCDKTHTCPPCPAPEAAGGPSVFLFPPKPKDTLMISRTPEVTCVVVSVSHEDPEVKFNWYVDGVEVHNAKTKPREEQYNSTYRVVSVLTVLHQDWLNGKEYKCKVSNKALPAPIEKTISKAKGQPREPQVYTLPPSREEMTKNQVSLTCLVKGFYPSDIAVEWESNGQPENNYKTTPPVLDSDGSFLLYSKLTVDKSRWQQGNVFSCSVMHEALHNHYTQKSLSLSPG
light 1: QSALTQPASVSGSPGQSITISCTGTSSNIGTYKFVSWYQQHPDKAPKVLLYEVSKRPSGVSSRFSGSKSGNTASLTISGLQAEDQADYHCVSYAGSGTLLFGGGTKLTVLGQPKAAPSVTLFPPSSEELQANKATLVCLISDFYPGAVTVAWKADSSPVKAGVETTTPSKQSNNKYAASSYLSLTPEQWKSHRSYSCQVTHEGSTVEKTVAPTECS
heavy 2: EVQLVESGGGLVKPGGSLRLSCAASGFTFSRYNMNWVRQAPGKGLEWVSSINSNSRYIYYADSVKGRFTISRDSAKNSLYLQMNSLRAEDTAVYYCAKTMGDYYYYYGMDVWGQGTTVTVSSASTKGPSVFPLAPSSKSTSGGTAALGCLVKDYFPEPVTVSWNSGALTSGVHTFPAVLQSSGLYSLSSVVTVPSSSLGTQTYICNVNHKPSNTKVDKKVEPKSCDKTHTCPPCPAPEAAGGPSVFLFPPKPKDTLMISRTPEVTCVVVSVSHEDPEVKFNWYVDGVEVHNAKTKPREEQYNSTYRVVSVLTVLHQDWLNGKEYKCKVSNKALPAPIEKTISKAKGQPREPQVYTLPPSREEMTKNQVSLTCLVKGFYPSDIAVEWESNGQPENNYKTTPPVLDSDGSFFLYSRLTVDKSRWQQGNVFSCSVMHEALHNHYTQKSLSLSPG
light 2: SSELTQPPSVSGAPGQRVTISCAGSLSNIGAGYDVHWYQQLPGTAPKLLIYGNINRLSGVPERFSGSKSGTSASLAITGLQAEDGADYYCQSYDSSLSSYVFGTGTKVTVLGQPKAAPSVTLFPPSSEELQANKATLVCLISDFYPGAVTVAWKADSSPVKAGVETTTPSKQSNNKYAASSYLSLTPEQWKSHRSYSCQVTHEGSTVEKTVAPTECS
notes: FAB-A: CD3B891 (CD3B376 - K477); FAB-B: PSMB890
